In patent publication US20050272099A1:

Molecular target: androgen receptor (UniProt P10275)
Assay: cell-based or functional assay

Chain of UniProt P10275 (P10275 whole entry): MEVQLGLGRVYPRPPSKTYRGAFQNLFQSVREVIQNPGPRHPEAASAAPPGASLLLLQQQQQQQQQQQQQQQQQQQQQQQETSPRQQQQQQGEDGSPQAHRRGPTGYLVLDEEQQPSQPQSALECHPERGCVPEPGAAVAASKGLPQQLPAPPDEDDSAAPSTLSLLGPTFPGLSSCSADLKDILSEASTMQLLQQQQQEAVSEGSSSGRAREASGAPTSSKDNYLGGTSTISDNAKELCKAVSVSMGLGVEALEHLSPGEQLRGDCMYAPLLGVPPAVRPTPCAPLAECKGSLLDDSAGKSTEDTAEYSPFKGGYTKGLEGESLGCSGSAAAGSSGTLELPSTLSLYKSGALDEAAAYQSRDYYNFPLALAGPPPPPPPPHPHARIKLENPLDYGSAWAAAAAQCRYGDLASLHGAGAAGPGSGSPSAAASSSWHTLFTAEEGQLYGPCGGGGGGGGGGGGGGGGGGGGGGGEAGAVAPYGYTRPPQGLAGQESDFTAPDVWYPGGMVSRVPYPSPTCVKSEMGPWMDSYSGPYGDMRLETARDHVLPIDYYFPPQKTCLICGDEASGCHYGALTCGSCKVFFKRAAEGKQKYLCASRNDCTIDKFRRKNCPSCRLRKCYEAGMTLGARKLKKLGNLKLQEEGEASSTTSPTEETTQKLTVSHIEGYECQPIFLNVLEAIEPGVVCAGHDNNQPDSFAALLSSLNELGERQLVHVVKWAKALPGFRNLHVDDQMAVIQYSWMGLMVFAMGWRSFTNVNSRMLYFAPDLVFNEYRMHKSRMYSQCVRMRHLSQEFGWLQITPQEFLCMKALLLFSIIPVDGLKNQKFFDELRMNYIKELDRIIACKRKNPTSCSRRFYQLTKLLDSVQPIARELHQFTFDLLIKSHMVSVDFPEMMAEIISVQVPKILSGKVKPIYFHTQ

- luciferase activity, AFP promoter (androgen responsive element) reporter in G2 cells, relative to the control reporter with mutated ARE: 3 to 4 fold
Substance: androgen receptor complex-associated protein (from UniProt Q58WW2 1-860)
